Experimental findings from paper PMC5906670, “Structural basis of epilepsy-related ligand–receptor complex LGI1–ADAM22” (Nature Communications, 2018) are described below.

To fix the notation:
B1: ADAM22 ECD-FLAG [human] / LGI1-His6 [human] (parent)
chain 1: SKRQLRRYPRNVEEETKYIELMIVNDHLMFKKHRLSVVHTNTYAKSVVNMADLIYKDQLKTRIVLVAMETWATDNKFAISENPLITLREFMKYRRDFIKEKSDAVHLFSGSQFESSRSGAAYIGGICSLLKGGGVNEFGKTDLMAVTLAQSLAHNIGIISDKRKLASGECKCEDTWSGCIMGDTGYYLPKKFTQCNIEEYHDFLNSGGGACLFNKPSKLLDPPECGNGFIETGEECDCGTPAECVLEGAECCKKCTLTQDSQCSDGLCCKKCKFQPMGTVCREAVNDCDIRETCSGNSSQCAPNIHKMDGYSCDGVQGICFGGRCKTRDRQCKYIWGQKVTASDKYCYEKLNIEGTEKGNCGKDKDTWIQCNKRDVLCGYLLCTNIGNIPRLGELDGEITSTLVVQQGRTLNCSGGHVKLEEDVDLGYVEDGTPCGPQMMCLEHRCLPVASFNFSTCLSSKEGTICSGNGVCSNELKCVCNRHWIGSDCNTYFPHNDDAKTGITLSG
chain 2: KKPAKPKCPAVCTCTKDNALCENARSIPRTVPPDVISLSFVRSGFTEISEGSFLFTPSLQLLLFTSNSFDVISDDAFIGLPHLEYLFIENNNIKSISRHTFRGLKSLIHLSLANNNLQTLPKDIFKGLDSLTNVDLRGNSFNCDCKLKWLVEWLGHTNATVEDIYCEGPPEYKKRKINSLSSKDFDCIITEFAKSQDLPYQSLSIDTFSYLNDEYVVIAQPFTGKCIFLEWDHVEKTFRNYDNITGTSTVVCKPIVIETQLYVIVAQLFGGSHIYKRDSFANKFIKIQDIEILKIRKPNDIETFKIENNWYFVVADSSKAGFTTIYKWNGNGFYSHQSLHAWYRDTDVEYLEIVRTPQTLRTPHLILSSSSQRPVIYQWNKATQLFTNQTDIPNMEDVYAVKHFSVKGDVYICLTRFIGDSKVMKWGGSSFQDIQRMPSRGSMVFQPLQINNYQYAILGSDYSFTQVYNWDAEKAKFVKFQELNVQAPRSFTHVSINKRNFLFASSFKGNTQIYKHVIVDLSA

The variants in the assay derive from B1. Description: pull-down. Conditions: with LGI1-His6 [human]; Ni-NTA agarose; proteins secreted from HEK293T cells; n = 5 independent experiments; read off a plot.
Consider chain 1 SKRQLRRYPRNVEEETKYIELMIVNDHLMFKKHRLSVVHTNTYAKSVVNMADLIYKDQLKTRIVLVAMETWATDNKFAISENPLITLREFMKYRRDFIKEKSDAVHLFSGSQFESSRSGAAYIGGICSLLKGGGVNEFGKTDLMAVTLAQSLAHNIGIISDKRKLASGECKCEDTWSGCIMGATGYYLPKKFTQCNIEEYHDFLNSGGGACLFNKPSKLLDPPECGNGFIETGEECDCGTPAECVLEGAECCKKCTLTQDSQCSDGLCCKKCKFQPMGTVCREAVNDCDIRETCSGNSSQCAPNIHKMDGYSCDGVQGICFGGRCKTRDRQCKYIWGQKVTASDKYCYEKLNIEGTEKGNCGKDKDTWIQCNKRDVLCGYLLCTNIGNIPRLGELDGEITSTLVVQQGRTLNCSGGHVKLEEDVDLGYVEDGTPCGPQMMCLEHRCLPVASFNFSTCLSSKEGTICSGNGVCSNELKCVCNRHWIGSDCNTYFPHNDDAKTGITLSG [chain 1 D183A], for which the percent of parent was 37 % of WT. Then chain 1 SKRQLRRYPRNVEEETKYIELMIVNDHLMFKKHRLSVVHTNTYAKSVVNMADLIYKDQLKTRIVLVAMETWATDNKFAISENPLITLREFMKYRRDFIKEKSDAVHLFSGSQFESSRSGAAYIGGICSLLKGGGVNEFGKTDLMAVTLAQSLAHNIGIISDKRKLASGECKCEDTWSGCIMGDTGAYLPKKFTQCNIEEYHDFLNSGGGACLFNKPSKLLDPPECGNGFIETGEECDCGTPAECVLEGAECCKKCTLTQDSQCSDGLCCKKCKFQPMGTVCREAVNDCDIRETCSGNSSQCAPNIHKMDGYSCDGVQGICFGGRCKTRDRQCKYIWGQKVTASDKYCYEKLNIEGTEKGNCGKDKDTWIQCNKRDVLCGYLLCTNIGNIPRLGELDGEITSTLVVQQGRTLNCSGGHVKLEEDVDLGYVEDGTPCGPQMMCLEHRCLPVASFNFSTCLSSKEGTICSGNGVCSNELKCVCNRHWIGSDCNTYFPHNDDAKTGITLSG [chain 1 Y186A], with 4 % of WT.
